From the DeepSol protein solubility set

Test: soluble on expression in E. coli; label from the status in PepcDB or PDB records

Q: For “MGSDKIHHHHHHMKIDELIALAAEQPTRISRRSGVSRSTLKRVGDGTSEPTLSTLREVALALGLDIKVAAHHACDPFAAAAARTLIDASVPENPHNQEILAWLHRFERWNINDPLTLVSEAGTLQGITHRQDAQFVKLNPRGIAELPELFQQHKTKWALSGAAAATVIMGQIVLGNSIVWHEPAHDLDVSALGTIVDVAEDADLILLPATVTELVGSYTQDRLNFVAPVQLVIDLHSLHMFEEADYLTSGWR”, which “soluble on expression in E. coli” value is on record?
A: not soluble

Q: For “MSSATTNSKIIHATRQHVYEALTQKEALEFWLAPDQMTGKIHDFDLSVGGGYTMSLFYTDNSIKGKTSGNEDRYTSTFIELQPYEKVVHSITFQSEKKEFEEAMIMEVFLEEKGKDVTNVTIFFKNIPAGITPEDNEAGTKESLDKLARYLENNNRSASEKKLEHHHHHH”, which “soluble on expression in E. coli” value is on record?
A: soluble

Q: For “GMKSAPDWIAHPDTPYLLIDEAKLKSNINYLKQRVESLGSHLRPHLKTLRTLEAAGYLLDSKSAPATVSTLAEAEAYAKAGYTDLLYAVGIAPAKLKRVAALRQQGINLHILLDNITQAQAVVDYAAEFGQDFSVFIEIDSDDHRGGIKPSDSKLLTIAKTLGEHFTGLMTHAGGSYACNTEQGLKNFAKQECDAVRIARNNLETAGIHCAITSVGSTPTAHFGEDFSDISEVRAGVYTTFDLVMKNIGVCDFSHIAMSVVTTVIGHNKEKNWLLTDSGWMALSRDSGTAGQNRDFGYGQVCKIDGSVLDGLCVNSTSQEHGVIELSDAYQLEDFPVGHQLRIMPNHACATAAMHPVYHVLMSDGSHNTWQRITGW”, which “soluble on expression in E. coli” value is on record?
A: soluble

Q: With “MGSDKIHHHHHHMLFLQNTPLPEIIDGLPNISGWEAEVLSVVNNDAPVFLPTTNIKLEDVNAVFAIALHMHQPTIPAGDGGELISNLQYMFAHPHEGDNHNAGPFAYCYSRMGEFIPELVSQGCNPRVMLDYSGNLLWGLRQMGRNDVLDSLKGVTGDRTYQPHVEWLGTMWGHAVVPSTPIKDIKLHILAWQQHFAAIFGWEALARVKGFSPPEMHLPNHPDTLFQFVKALKECGYRWLLVQEHTVETIDGQSLTNRHLPHRLLARNSQGETISIIALIKTQGSDTKLVAQMQPYYEAKTLSKRRLGNVEIPPIVSQIGDGENGGVMMNEFPSAFKQAWWDMVNHGGGKSGVVGVCGTEYLELIEAAGVKPEDFPSCQPVGQHQIWQRVAPDNNQPEAVENAIQEIKQINPNFHLEGASWTNHISWVRGYENVLSPMYELSSLFHQKFDNLLLNNSYSSITKQPDYRQALLYNLLLQTSCFRYWGQGAWTDYAREIYQRGKSLLTS” as the sequence, how does the “soluble on expression in E. coli” value read?
A: not soluble

Q: For “MIKCIYIVCALNDNTIYSTLHYMEYSIQRGEIYMKIIKRSGSEDIFDAAKIVAAIRKANDSVLDYEKLTADQIEEIASNVETACENMKRSPSVEEIQDMVENQLMNKRAFTVARNYITYRYKRAIVRKSNST”, which “soluble on expression in E. coli” value is on record?
A: not soluble

Q: For “STNLRAWLYQGDHCLESRQSEAGVTRLNGKSPAAVLAEVTTDWREENTPVVMAGMVGSNVGWKVAPYLSVPARFSSIGEQLTSVGDNIWIIPGLCVSHDDNHNVMRGEETQLIGARALAPSSLYVMPGTHCKWVQADSQQINDFRTVMTGELHHLLLNHSLIGAGLPPQENSADAFAAGLERGLNAPAILPQLFEVRASHVLGTLPREQVSEFLSGLLIGAEVASMRDYVTHQHAITLVAGTSLTARYQQAFQAMGCDVAAVAGDTAFQAGIRSIAHAVAN”, which “soluble on expression in E. coli” value is on record?
A: not soluble

Q: Which “soluble on expression in E. coli” value does the source give for “MAKVSLEKDRIKFLLVEGVHQSAVDNLRAAGYSNIEYHKGALDAESLKASIRDAHFIGIRSRTHLSEDVFAAAEKLVAVGCFCIGTNQVDLKAATKRGVPVFNAPFSNTRSVAEMVLGELLLMFRGIPSANAKAHRGEWNKLAVGSFEARGKKLGIIGYGHIGTQLGILAESIGMKVFFYDIENKLSLGNAQQVRQLSDLLNMSDVVSLHVPENHTTKNMIGAEQLAQMKPGALLINASRGTVVDIPALCDALSSNHLSGAAIDVFPEEPATNKDPFNSPLCEFDNVLLTPHIGGSTQEAQENIGDEVAGKLAKYSDNGSTLSAVNFPEVSLPAHGDNTRRLLHIHENRPGILTSINTIFAEQNVNIAAQYLQTSADIGYVVIDVETDDADNAEKALQAMKAIPGTIRARLLY” here?
A: not soluble

Q: For “MGSDKIHHHHHHMIAVLDMGTNSFILLVVSEKGETILEEVHEVGIASGNLEKAKEVFKECVEKAEKMGAELHIFGTAFFRKHPDIFQQITGGRGEILPEEKEAYYSYISVAKDFGKKDILVADLGGGSLELAWKDGYVSLELGTHVLNRTFSLTLPYIEPVDGIVEYVMKRLPEVKKDELFGVGGSFVALAALMKGKWDLEILHGSVLKLEEVEKLVDKIKRMSFEDVKNLKVLPEGREKTILAGGIVTIALLRKYSPRMTVSTRGYRYGIVWEILEKRWRARGDSNPQPPDPQSGALSN”, which “soluble on expression in E. coli” value is on record?
A: not soluble

Q: For “MGSDKIHHHHHHMEELREAFEEGKPVILIDRNRENEADFVFPAQLITEDVVSFFVTYGKGLFCVTADEEDLLKRGFVKLSSNYGANYFVPVDWGTGTGISALERAETCRKLAEGRYFHEFRYPGHVTVIGGIGFQRRKGHTEASLEISELAGFSRHAVIVEILDEKGNSHNLDYVLKLSEKFSLPVLEMDDVWREFVKRKLLMKKKAEATLPTDFGVFKVVSFENHLDGKEHFAIVKEPLEDPVAVRIHSECVTGDVLSSLRCDCGSQLANFLRYMSAHGGILIYLRQEGRGIGLSNKIAAYSLQDKGLDTVEANRVLGFSEDERDYAPAAQILKALGIERVLLFTNNQRKTVGLEKYGIEVVETKRLYGRVTPHNRFYLSTKMKKLGHELEEIFREVNS”, which “soluble on expression in E. coli” value is on record?
A: not soluble

Q: Which “soluble on expression in E. coli” value does the source give for “MGSDKIHHHHHHMAYIKRTIETTIENAAKMFSTVLITGARQVGKTTVLKHITEDISYLTLDDPILLLNAFEEAGSFFKSTPPPVIIDEIQYAPNLFPYIKMIADENGKRGQFYLTGSQQFKMMKNVSESLAGRIGIINLLGLSLREIKGDADFNKAFIPTESYLETRRLSAKELNYKEIWKIIYKGSMPAMYADELDWQLFYGSYTKTYLERDVRELTQVGDELKFIKFMTAMASRTSQMLNLTSIANEVGISVPTADRWLSILVSSNIVYLLKPYYNNIMKRAVKTPKLYFLDTGLAAYLTKWNSPDVIEAGAMSGAFFETFVLAEILKGYYNAGILEPALYYYRDKDAKEIDIILEENGTLYPIEIKKTANPSKEHIANFSVLDRLKDMKIGTGCVICMYDKVIHINDNNVSIPVTWL” here?
A: not soluble

Q: Which “soluble on expression in E. coli” value does the source give for “MSLDSWSRNFELLINSRTPLIWIRTKEEERLYKVIDKSCKKLNIKRFVSWDCVNGIKGVLNENGKFSNNPMGVLNWIKAQTSEIPTILLVRDFHKFYDDPSISRTIKELSSSLRETNNNLILSSHILPSSEELDDLITILNLPLPDLSELTALIKKIAFNTDSDLSEQDLNELAIASSGLSEIKVKQVTAKALAQRGKISKFDIKDMLEEKKQVIARSEGHHHHHH” here?
A: soluble

Q: For “MGSDKIHHHHHHMSGGSSMTDQGWAMKGELVLSCNCTVFCPCVLSLGNHAPTEGYCQTWAGFRIDAGHFGEVDLSGLNLGLIMEIPGYMSRGNWTAGLFIDKRASIYAVKALTKIFTGKAGGTTSLLSILVGKFLPITYETRDKMRIFQIPKIIDGAVTPIAGKDREKDTVITNSEYWIAPEIIVARSDKSKMRAFGRNWNFAGRSAEICKLDWRGP”, which “soluble on expression in E. coli” value is on record?
A: not soluble

Q: For “MSNIIKQLEQEQLKQNVPSFRPGDTLEVKVWVVEGSKRRLQAFEGVVIAIRNRGLHSAFTLRKVSNGVGVERVFQTHSPAVDSIAVKRKGAVRKAKLYYLRERSGKSARIKERLGALEHHHHHH”, which “soluble on expression in E. coli” value is on record?
A: not soluble

Q: For “MSRSPDAKEDPVECPLCMEPLEIDDINFFPCTCGYQICRFCWHRIRTDENGLCPACRKPYPEDPAVYKPLSQEELQRI”, which “soluble on expression in E. coli” value is on record?
A: soluble

Q: For “MKSLPYTIALLFCGLIIVSMAAKGHSTDTDESVQKWEQLAWSKIQDEYKGASFSDYAYMGRTEVNDQQTKDVFRVTVRQKDDTFSVRAEVYFHPVTNHMISINVFRLMAGDPLEHHHHHH”, which “soluble on expression in E. coli” value is on record?
A: soluble

Q: For “MGSDKIHHHHHHMTTIHVSDLSKTYGTDTNVPVLSGVSFDLTSPAIHGLIGANGVGKTTLLRILAGQSRCEGVVEVDGQPAFDNPEVMDRCVLMGIDVPLPSTWRGTKLLSFAQHRYPRWDEARCAQLIDAFQVPVDKPYQSLSRGQKSALGIIIAFSATCDITLLDEPYLGLDVANRDLFYRELRAEQARCPRLIILSTHHINEASHVFDSVMVLKKDGVALQGDVESITGRVVELVGPKATIEGFVSHPARRIGEVHTAGGVAKVLAEARAEEWDQLSALGLRTHEVSLERAVMFLECD”, which “soluble on expression in E. coli” value is on record?
A: not soluble

Q: With “LGSVKPATCEKPKFLEYKTCVGDLAVVIAKALDEFKEFCIVNAANEHMSHGGGVAKAIADFCGPDFVEYCADYVKKHGPQQKLVTPSFVKGIQCVNNVVGPRHGDSNLREKLVAAYKSVLVGGVVNYVVPVLSSGIFGVDFKISIDAMREAFKGCAIRVLLFSLSQEHIDYFDATCK” as the sequence, how does the “soluble on expression in E. coli” value read?
A: soluble

Q: With “MCFTKKSTKTPPEPISKDSADKKKKTTIKKGKKFPMMNMIVKNKKNEVQVEKKPEEVPEQNKSVKDQTKKEEVKVVEEDKVEKKVEQKKPIINRPNCVAINPRSATSGKKNKYKFKYGQIDQQELSINNDKTEYLENAQLTKLMSHADVRALMGGQFAQGENADTNNCQDTVEEVDSEMLEIAFSPLLAVIPREDERVYGAFVHPTEQKKNAEA” as the sequence, how does the “soluble on expression in E. coli” value read?
A: soluble

Q: For “MAHHHHHHMHPYLFICKEGNNNNGSTTNLKSGMSLSDRRHTPLGRNLSESTELSQSLSSRSGGSSPIPRPNLDDITRRLLEENEGMLFEINKLTRELTDERAKVSGLHETLAERSAELELMKEKLSDATVVATDDTGKPINYKRECDGLAADNNRLVKEYERVCTELEKRTEEIRREMGDQRDEAEGKTISVQVEQFNREITALVPTVEHIVNSLKRCVVTGGIAEERILENAQKELHTMRRITDTVRRMNAGDETCVKGLLTQIQKGEQLTAPGDVAVVIRWMVVRAFEAGLQSAEGNLRTLVDILNNSKGRYTSENATTGSGEVPASGISVRQMFRLLKM”, which “soluble on expression in E. coli” value is on record?
A: not soluble

Q: Which “soluble on expression in E. coli” value does the source give for “MAELPAKRRFTRIDRLPPYVFNITSELKMAARRRGEDIIDFSMGNPDGPTPPHIVEKMCSVAQREDTHGYSTSRGIPCLRRAISRWYADRYQVDIDPENEAIVTIGSKEGLAHLMLATLDHGDTVLVPNPSYPIHIYGAVIAGAQVRSVPLTEGIDFFGELERAIRETIPKPKMMILGFPSNPTAQCVELDFFERVVALAKQYDVLVVHDLAYADIVYDGWKAPSIMQVPGAKDIAVEFFTLSKSYNMAGWRIGFMVGNPELVSALARIKSYHDYGTFTPLQVAAIAALEGDQQCVRDIAEQYRQRRNALVRGLHEAGWMVDNPKASMYVWAKIPEPYAHLGSLEFAKRLLAEAKVCVSPGIGFGDYGDTHVRFALIENQDRIRQAVRGIKSMFRADGLLKPGKSSPNEMA” here?
A: not soluble

Q: For “MAALAGDEAWRCRGCGTYVPLSQRLYRTANEAWHGSCFRCSECQESLTNWYYEKDGKLYCHKDYWAKFGEFCHGCSLLMTGPAMVAGEFKYHPECFACMSCKVIIEDGDAYALVQHATLYCGKCHNEVVLAPMFERLSTESVQDQLPYSVTLISMPATTECRRGFSVTVESASSNYATTVQVKEVNRMHISPNNRNAIHPGDRILEINGTPVRTLRVEEVEDAIKQTSQTLQLLIEHDPVPQRLDQLRLDARLPPHMQSTGHTLMLSTLDTKENQEGTLRRRSLRRSNSISKSPGPSSPKEPLLLSRDISRSESLRCSSSYSQQIFRPCDLIHGEVLGKGFFGQAIKVTHKATGKVMVMKELIRCDEETQKTFLTEVKVMRSLDHPNVLKFIGVLYKDKKLNLLTEYIEGGTLKDFLRSVDPFPWQQKVRFAKGISSGMAYLHSMCIIHRDLNSHNCLIKLDKTVVVADFGLSRLIVEERKRPPVEKATTKKRTLRKSDRKKRYTVVGNPYWMAPEMLNGKSYDETVDVFSFGIVLCEIIGQVYADPDCLPRTLDFGLNVKLFWEKFVPTDCPPAFFPLAAICCKLEPESRPAFSKLEDSFEALSLFLGELAIPLPAELEDLDHTVSMEYGLTRDSPP”, which “soluble on expression in E. coli” value is on record?
A: soluble
